Experimental data from the supplement of paper PMC7877785.
± gives the uncertainty stated by the source.

Assay: self-splicing fitness, log relative to wild type (ln ratio); higher = more splicing; Tetrahymena group I intron in knt gene, E. coli kanamycin selection, DiMSum; sequences stand for … in CUCUCU…GGAGGGAAAAGUUAUCAGGCAUGCACCUGGUAGCUAGUCUUUAAACCAAUAGAUUGCAUCGGUUUAAAAGGCAAGACCGUCAAAUUGCGGGAAAGGGGUCAACAGCCGUUCAGUACCAAGUCUCAGGGGAAACUUUGAGAUGGCCUUGCAAAGGGUAUGGUAAUAAGCUGACGGACAUGGUCCUAACCACGCAGCCAAGUCCUAAGUCAACAGAUCUUCUGUUGAUAUGGAUGCAGUUCACAGACUAAAUGUCGGUCGGGGAAGAUGUAUUCUUCUCAUAAGAUAUAGUCGGACCUCUCCUUAAUGGGAGCUAGCGGAUGAAGUGAUGCAACACUGGAGCCGCUGGGAACUAAUUUGUAUGCGAAAGUAUAUUGAUUAGUUUUGGAGUACUCGUGGUCG
Method in brief: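 Pooled colonies went to amplicon sequencing on an Illumina HiSeq 2500 after six replicate transformations. The plates were LB agar with 100 μg/mL carbenicillin, 50 μM IPTG and 0.2% rhamnose, with or without 25 μg/mL kanamycin, incubated overnight at 37°C or 30°C. The E. coli BL21(DE3) library had all eight P1ex-region intron nucleotides randomised, the intron placed in the knt kanamycin-resistance gene on pET-22b(+). DiMSum fitness is the error-weighted combination of replicate fold changes, kanamycin against none, normalised to wild type.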

Sequence	self-splicing fitness (ln) (30 °C)	self-splicing fitness (ln) (37 °C)
AUAUAGCAAUAUUACGCUCC	-0.958 ± 0.25	-0.476 ± 0.32
AUAUAGCAAUAUUACGCUUC	-2.84 ± 0.38	-2.86 ± 0.43
AUAUAGCAAUAUUACGGAAG	-3.08 ± 0.36	-1.27 ± 0.34
AUAUAGCAAUAUUACGGCGC	-1.38 ± 0.19	-0.869 ± 0.26
AUAUAGCAAUAUUACGUGGC	–	-2.67 ± 0.31
AUAUAGCAAUAUUACGUUAU	-3.02 ± 0.13	-1.65 ± 0.12
AUCAAGCAAUAUUACGAAAU	-2.09 ± 0.078	-1.04 ± 0.092
AUCAAGCAAUAUUACGAACA	-1.12 ± 0.08	-0.578 ± 0.08
AUCAAGCAAUAUUACGAAUC	-4.76 ± 0.41	-2.78 ± 0.3
AUCAAGCAAUAUUACGACCG	-1.33 ± 0.15	-0.381 ± 0.18
AUCAAGCAAUAUUACGACCU	-0.924 ± 0.11	-0.336 ± 0.1
AUCAAGCAAUAUUACGAUAC	-4.68 ± 0.39	-2.17 ± 0.26
AUCAAGCAAUAUUACGAUCC	-2.34 ± 0.2	-0.539 ± 0.21
AUCAAGCAAUAUUACGCAGG	-2.34 ± 0.2	-1.8 ± 0.2
AUCAAGCAAUAUUACGCCAG	-3.08 ± 0.2	-1.32 ± 0.23
AUCAAGCAAUAUUACGCCCC	-1.45 ± 0.3	0.787 ± 0.27
AUCAAGCAAUAUUACGCGCC	-1.23 ± 0.14	-0.474 ± 0.17
AUCAAGCAAUAUUACGGAGC	-2.98 ± 0.28	-1.92 ± 0.25
AUCAAGCAAUAUUACGGCGC	-1.01 ± 0.093	0.428 ± 0.14

Sequence	self-splicing fitness (ln) (30 °C)	self-splicing fitness (ln) (37 °C)
AUCAAGCAAUAUUACGGGCC	-2.78 ± 0.2	-0.86 ± 0.29
AUCAAGCAAUAUUACGGUAA	-2.12 ± 0.12	-0.319 ± 0.084
AUCAAGCAAUAUUACGGUAG	–	-2.53 ± 0.39
AUCAAGCAAUAUUACGGUCA	-1.76 ± 0.14	-1.28 ± 0.13
AUCAAGCAAUAUUACGUAUG	-4.19 ± 0.24	-1.56 ± 0.14
AUCAAGCAAUAUUACGUCUC	-2.08 ± 0.087	-1.16 ± 0.11
AUCAAGCAAUAUUACGUGCA	-0.986 ± 0.077	-0.556 ± 0.088
AUCAAGCAAUAUUACGUGCG	-1.03 ± 0.079	0.202 ± 0.099
AUCAAGCAAUAUUACGUUAG	-3.1 ± 0.14	-3.05 ± 0.2
AUCCAGCAAUAUUACGAACA	-0.801 ± 0.087	-0.748 ± 0.11
AUCCAGCAAUAUUACGAACU	-1.98 ± 0.15	-0.753 ± 0.18
AUCCAGCAAUAUUACGACAU	0.00336 ± 0.011	0.408 ± 0.032
AUCCAGCAAUAUUACGAGAC	-2.51 ± 0.091	-2.01 ± 0.11
AUCCAGCAAUAUUACGAUCG	-2.6 ± 0.2	-3.02 ± 0.37
AUCCAGCAAUAUUACGCACU	-0.149 ± 0.11	0.144 ± 0.11
AUCCAGCAAUAUUACGCAGA	-1.38 ± 0.11	-0.448 ± 0.099
AUCCAGCAAUAUUACGCCAC	-2.03 ± 0.18	-2.5 ± 0.2
AUCCAGCAAUAUUACGCCGA	-1.37 ± 0.1	-0.75 ± 0.14
